In article PMC9482650, “Quantitative fragmentomics allow affinity mapping of interactomes” (Nature Communications, 2022):

T1: TJP3_3, O95049
T1 sequence (O95049 375-456, limits assumed, looked up): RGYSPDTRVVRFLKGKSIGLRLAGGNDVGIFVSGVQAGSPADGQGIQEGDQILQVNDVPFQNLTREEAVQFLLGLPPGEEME

T2: LNX2_3, Q8N448
T2 sequence (Q8N448 463-564, limits assumed, looked up): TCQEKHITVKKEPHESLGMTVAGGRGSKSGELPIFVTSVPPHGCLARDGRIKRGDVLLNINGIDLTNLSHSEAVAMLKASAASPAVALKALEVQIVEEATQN

T3: LRRC7, Q96NW7
T3 sequence (Q96NW7 1440-1537, limits assumed, looked up): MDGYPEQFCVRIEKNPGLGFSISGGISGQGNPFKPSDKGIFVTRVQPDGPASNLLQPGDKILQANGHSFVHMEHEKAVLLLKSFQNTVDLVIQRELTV

T4: NHERF3_3, Q5T2W1
T4 sequence (Q5T2W1 238-333, limits assumed, looked up): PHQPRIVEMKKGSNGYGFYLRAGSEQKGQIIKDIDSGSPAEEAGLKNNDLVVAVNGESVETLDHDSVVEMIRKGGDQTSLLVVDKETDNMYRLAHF

T5: PDZD2_2, O15018
T5 sequence (O15018 329-429, limits assumed, looked up): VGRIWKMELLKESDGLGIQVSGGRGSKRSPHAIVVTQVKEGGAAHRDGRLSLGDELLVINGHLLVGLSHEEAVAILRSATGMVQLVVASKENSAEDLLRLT

T6: APBA2_1, Q99767
T6 sequence (Q99767 563-664, limits assumed, looked up): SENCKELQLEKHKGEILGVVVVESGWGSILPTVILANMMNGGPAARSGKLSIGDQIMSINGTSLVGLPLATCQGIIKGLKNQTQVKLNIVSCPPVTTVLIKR

T7: DFNB31_3, Q9P202
T7 sequence (Q9P202 811-907, limits assumed, looked up): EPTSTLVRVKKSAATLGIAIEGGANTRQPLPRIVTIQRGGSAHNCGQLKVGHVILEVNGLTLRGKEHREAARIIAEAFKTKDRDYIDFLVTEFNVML

T8: APBA1_2, Q02410
T8 sequence (Q02410 742-832, limits assumed, looked up): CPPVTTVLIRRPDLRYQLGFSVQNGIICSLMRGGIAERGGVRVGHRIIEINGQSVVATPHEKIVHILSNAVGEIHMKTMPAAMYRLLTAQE

T9: GRIP1_3, Q9Y3R0
T9 sequence (Q9Y3R0 247-346, limits assumed, looked up): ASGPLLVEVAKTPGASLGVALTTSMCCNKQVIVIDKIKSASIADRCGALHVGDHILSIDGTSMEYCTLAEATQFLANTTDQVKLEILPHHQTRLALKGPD

T10: NHERF3_4, Q5T2W1
T10 sequence (Q5T2W1 373-468, limits assumed, looked up): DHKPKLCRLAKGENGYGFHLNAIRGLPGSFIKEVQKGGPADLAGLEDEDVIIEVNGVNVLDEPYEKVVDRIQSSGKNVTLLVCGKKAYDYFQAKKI

T11: DVL3, Q92997
T11 sequence (Q92997 244-331, limits assumed, looked up): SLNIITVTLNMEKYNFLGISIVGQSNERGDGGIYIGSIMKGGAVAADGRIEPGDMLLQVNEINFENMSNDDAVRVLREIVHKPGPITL

T12: PDZD7_3, Q9H5P4
T12 sequence (Q9H5P4 857-944, limits assumed, looked up): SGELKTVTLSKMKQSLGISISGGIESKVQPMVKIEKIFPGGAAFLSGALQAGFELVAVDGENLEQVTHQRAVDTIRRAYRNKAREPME

T13: APBA3_1, O96018
T13 sequence (O96018 389-490, limits assumed, looked up): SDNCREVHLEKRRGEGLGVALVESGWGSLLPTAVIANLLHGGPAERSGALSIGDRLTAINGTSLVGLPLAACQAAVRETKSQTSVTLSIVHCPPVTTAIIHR

T14: HTRA3, P83110
T14 sequence (P83110 354-453, limits assumed, looked up): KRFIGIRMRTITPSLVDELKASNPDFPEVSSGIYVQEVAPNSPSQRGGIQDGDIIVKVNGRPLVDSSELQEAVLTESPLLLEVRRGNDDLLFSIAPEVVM


Assays:
Assay in all cases: holdup assay
Parameters in all cases: key: below the threshold = too weak to quantify, mostly under pKd 3.1 to 4
Conditions in all cases: plain residues with an end cap or a label only (N-terminal biotin on a linker: ado-ado)
Inadl_9, Q8NI35 = target: Inadl_9, Q8NI35
LNX1_1, Q8TBB1 = target: LNX1_1, Q8TBB1
IL16_3, Q14005 = target: IL16_3, Q14005
GIPC2, Q8TF65 = target: GIPC2, Q8TF65
TJP3_3, O95049 = target: T1, TJP3_3, O95049
LNX2_3, Q8N448 = target: T2, LNX2_3, Q8N448
FRMPD2_3, Q68DX3 = target: FRMPD2_3, Q68DX3
LRRC7, Q96NW7 = target: T3, LRRC7, Q96NW7
NHERF3_3, Q5T2W1 = target: T4, NHERF3_3, Q5T2W1
TJP1_3, Q07157 = target: TJP1_3, Q07157
GRIP2_7, Q9C0E4 = target: GRIP2_7, Q9C0E4
PDZD2_2, O15018 = target: T5, PDZD2_2, O15018
Inadl_5, Q8NI35 = target: Inadl_5, Q8NI35
APBA2_1, Q99767 = target: T6, APBA2_1, Q99767
DLG2_2, Q15700 = target: DLG2_2, Q15700
DFNB31_3, Q9P202 = target: T7, DFNB31_3, Q9P202
MAST1, Q9Y2H9 = target: MAST1, Q9Y2H9
APBA1_2, Q02410 = target: T8, APBA1_2, Q02410
GRIP1_3, Q9Y3R0 = target: T9, GRIP1_3, Q9Y3R0
NHERF3_4, Q5T2W1 = target: T10, NHERF3_4, Q5T2W1
DVL3, Q92997 = target: T11, DVL3, Q92997
PDZD7_3, Q9H5P4 = target: T12, PDZD7_3, Q9H5P4
APBA3_1, O96018 = target: T13, APBA3_1, O96018
HTRA3, P83110 = target: T14, HTRA3, P83110

Sequence of Inadl_5, Q8NI35 (Q8NI35 673-780): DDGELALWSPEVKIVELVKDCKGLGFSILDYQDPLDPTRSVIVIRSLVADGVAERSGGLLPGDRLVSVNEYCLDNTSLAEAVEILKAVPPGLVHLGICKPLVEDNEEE
Sequence of GRIP2_7, Q9C0E4 (Q9C0E4 934-1023): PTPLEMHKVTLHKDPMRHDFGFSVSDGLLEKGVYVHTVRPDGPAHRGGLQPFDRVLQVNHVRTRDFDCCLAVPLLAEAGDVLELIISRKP
Sequence of FRMPD2_3, Q68DX3 (Q68DX3 1073-1166): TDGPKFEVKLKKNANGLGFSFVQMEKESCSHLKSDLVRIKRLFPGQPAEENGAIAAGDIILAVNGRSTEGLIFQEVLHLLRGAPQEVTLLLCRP
Sequence of DLG2_2, Q15700 (Q15700 189-283): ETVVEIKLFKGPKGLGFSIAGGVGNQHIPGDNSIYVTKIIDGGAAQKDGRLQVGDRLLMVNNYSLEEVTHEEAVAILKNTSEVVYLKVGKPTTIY
Sequence of MAST1, Q9Y2H9 (Q9Y2H9 962-1065): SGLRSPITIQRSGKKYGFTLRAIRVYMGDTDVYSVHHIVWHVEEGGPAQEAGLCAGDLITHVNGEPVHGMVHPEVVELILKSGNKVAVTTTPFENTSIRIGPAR
Sequence of Inadl_9, Q8NI35 (Q8NI35 1530-1615): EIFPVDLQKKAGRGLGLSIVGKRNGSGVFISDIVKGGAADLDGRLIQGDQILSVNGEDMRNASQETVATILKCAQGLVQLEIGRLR
Sequence of GIPC2, Q8TF65 (Q8TF65 112-203): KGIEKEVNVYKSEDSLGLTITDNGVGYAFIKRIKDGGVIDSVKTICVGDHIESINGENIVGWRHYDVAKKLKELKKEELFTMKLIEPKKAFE
Sequence of TJP1_3, Q07157 (Q07157 416-512): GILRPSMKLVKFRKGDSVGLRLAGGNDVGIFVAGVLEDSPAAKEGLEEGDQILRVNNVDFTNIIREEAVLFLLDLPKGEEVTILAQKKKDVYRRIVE
Sequence of LNX1_1, Q8TBB1 (Q8TBB1 261-371): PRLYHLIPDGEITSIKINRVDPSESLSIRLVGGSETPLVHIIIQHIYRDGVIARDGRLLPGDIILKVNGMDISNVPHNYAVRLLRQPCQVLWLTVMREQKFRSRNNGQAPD
Sequence of IL16_3, Q14005 (Q14005 1107-1207): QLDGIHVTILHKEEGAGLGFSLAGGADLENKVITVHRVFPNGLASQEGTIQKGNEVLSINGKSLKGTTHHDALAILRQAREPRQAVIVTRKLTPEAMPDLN

| pKd (Inadl_9, Q8NI35) | pKd (LNX1_1, Q8TBB1) | pKd (IL16_3, Q14005) | pKd (GIPC2, Q8TF65) | pKd (TJP3_3, O95049) | pKd (LNX2_3, Q8N448) | pKd (FRMPD2_3, Q68DX3) | pKd (LRRC7, Q96NW7) | pKd (NHERF3_3, Q5T2W1) | pKd (TJP1_3, Q07157) | pKd (GRIP2_7, Q9C0E4) | pKd (PDZD2_2, O15018) | pKd (Inadl_5, Q8NI35) | pKd (APBA2_1, Q99767) | pKd (DLG2_2, Q15700) | pKd (DFNB31_3, Q9P202) | pKd (MAST1, Q9Y2H9) | pKd (APBA1_2, Q02410) | pKd (GRIP1_3, Q9Y3R0) | pKd (NHERF3_4, Q5T2W1) | Binder | also measured |
| --- | --- | --- | --- | --- | --- | --- | --- | --- | --- | --- | --- | --- | --- | --- | --- | --- | --- | --- | --- | --- | --- |
| below the threshold | below the threshold | below the threshold | below the threshold | below the threshold | below the threshold | below the threshold | below the threshold | below the threshold | below the threshold | below the threshold | 4.07 | below the threshold | below the threshold | 4.29 | 3.56 | 4.3 | 3.56 | below the threshold | below the threshold | VNKSKLLTDV [KCNA1, Q09470] | pKd (DVL3, Q92997): below the threshold; pKd (PDZD7_3, Q9H5P4): 4.36; pKd (APBA3_1, O96018): below the threshold; pKd (HTRA3, P83110): below the threshold |
| below the threshold | 3.92 | below the threshold | below the threshold | below the threshold | below the threshold | below the threshold | below the threshold | below the threshold | below the threshold | below the threshold | 3.5 | below the threshold | below the threshold | below the threshold | below the threshold | 4.46 | below the threshold | below the threshold | 3.48 | EVNETDDTKM [KCNJ1, P48048] | pKd (DVL3, Q92997): below the threshold; pKd (PDZD7_3, Q9H5P4): 4.38; pKd (APBA3_1, O96018): below the threshold; pKd (HTRA3, P83110): below the threshold |
| below the threshold | below the threshold | below the threshold | below the threshold | below the threshold | below the threshold | below the threshold | below the threshold | below the threshold | below the threshold | below the threshold | 3.97 | below the threshold | below the threshold | 4.47 | 3.47 | 3.97 | below the threshold | below the threshold | below the threshold | SKENVQETQI [LRRC4B, Q9NT99] | pKd (DVL3, Q92997): below the threshold; pKd (PDZD7_3, Q9H5P4): 5.39; pKd (APBA3_1, O96018): below the threshold; pKd (HTRA3, P83110): below the threshold |
| below the threshold | below the threshold | below the threshold | below the threshold | below the threshold | below the threshold | below the threshold | below the threshold | below the threshold | below the threshold | below the threshold | below the threshold | below the threshold | below the threshold | below the threshold | below the threshold | below the threshold | below the threshold | below the threshold | below the threshold | LSEFKAMDSI [CTNNA1, P35221] | pKd (DVL3, Q92997): below the threshold; pKd (PDZD7_3, Q9H5P4): below the threshold; pKd (APBA3_1, O96018): below the threshold; pKd (HTRA3, P83110): below the threshold |
| below the threshold | below the threshold | below the threshold | below the threshold | below the threshold | below the threshold | below the threshold | below the threshold | below the threshold | below the threshold | below the threshold | 3.97 | below the threshold | below the threshold | 3.65 | 4.08 | 3.9 | below the threshold | below the threshold | below the threshold | TPPAAKKSRI [BAZ1A, Q9NRL2] | pKd (DVL3, Q92997): below the threshold; pKd (PDZD7_3, Q9H5P4): 4.52; pKd (APBA3_1, O96018): below the threshold; pKd (HTRA3, P83110): below the threshold |
| 3.68 | below the threshold | below the threshold | below the threshold | below the threshold | below the threshold | 3.71 | below the threshold | 3.48 | below the threshold | 4.35 | 4.27 | below the threshold | below the threshold | 3.72 | below the threshold | below the threshold | 3.5 | below the threshold | below the threshold | VDSTVKVWTC [TRAF7, Q6Q0C0] | pKd (DVL3, Q92997): 3.85; pKd (PDZD7_3, Q9H5P4): below the threshold; pKd (APBA3_1, O96018): below the threshold; pKd (HTRA3, P83110): 5.13 |
